# From the domain aggregation screens of Martell et al. (2025)
# Test: soluble fraction after stress (log2 fold change); higher = more stays soluble; pooled small domains, quantitative proteomics
# Conditions: stress: pH 4
# How it was run: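 Values are on a log2 scale, where higher means more of the domain stayed soluble after pH 4 stress. They are fold changes in the soluble amount of each domain from pooled custom libraries, measured by high-throughput quantitative proteomics. The fold change is taken to reflect aggregation propensity.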
row,Sequence,soluble fraction (log2)
1,HMDVNLSIRSGETIGIIGSTGSAKSTLVQLIPRLYDTTEGEVLVGGVNVKNYDLEALRNSVAMVLQKN,-0.155
2,HMRVDRSALDSIPGVGPGRKRTLLHHFGSARAVEASGLADLESIRGISKALARKIYDFFHPE,0.161
3,HMNVEATAETLLALLKKNGGSLPFGDKSDPEAIQSQLKMSKKTFKKAAGTLFKKKLVRIEDHGIFL,0.0517
4,HMVPEMIRDVISKSIRDMGVLPDHMQINERIALIQSLKKQQILGIKGAVAETARQLGISVPTVYRYMKKG,-0.125
5,HMTGAEGKLARYLLTVPSGEPLRLSATDLAKRLGISRASLYRAFQALEDARLIRREGKSMYVLDPAGLEGV,≥ 0.43
6,HMPTTRPEAEAHYETHQRYHDLQIDVEGREAFKVATGSLTLVQEFDEKDDYDLSIPTPRSPAILLTT,-0.208
7,HMAVTFPYTAYATDAVRLRERPSSSADVLAVIRKGDAVLVTGTDGNYAIVDYEGKRGYVVSSFIAT,-0.159
8,HMENFIPDDPKRIEIGMSVLHQRFGKGKVMQLEGNLPDMKATVNFEGEGQKQLLLKYARLKIV,-0.0241
9,HMSDPFSPTTTLKNRAKSVLSVDSFEDFKLFIKKMWQEKKEGVYQNPNVETWKDWDNISVKDAKILISLI,-0.327
10,HMKQENRLKILRKEKGLTQTKLANEIGVSKRTIIAWENDERQIKPDKAQQLADYFGVKEGYLLGYTNN,-0.0458
11,HMKESRFDYDAVLLYSDKDSITEVKDAVQHLTKEFGSVFTTKKIPEKATFGKLFRIEKGEVNIIEDN,-1.22
12,HMQITTVSPKNYAEAELIGQRFREGNPVVMDLSKLDSDLGQRLVDFASGLVFALNGTVERIAKKVFLLSP,-0.748
13,HMSMNSWFVEKERDNTRIDKFLNEQMADISRSYIQKLIKDDLVTVDLRPVKANYKVKEGDRVEVTLPEPV,-0.0679
14,HMRYQIAEARKLRDITQAELAEKMGTTQQTIQRYETNQVNIRMDKMIEMSEILNVSLAYLLGMSSSPEL,0.122
15,HMLGDAWSMLILRDAHSGFSRFDQFRKSLGIAPTMLTKRLSVLVDEGLLEKRQYSEHPPREEYVLTQAGQD,0.149
16,HMKQQAYEQGKAAYQSGDWLRAVTQLGQVKEAGEKNGEVDHLLGNAYMKLGQFESAAYAYNSALEDVA,0.123
17,HMSSPEAAEVQRLLKDGQHVQALKIIDESLARNPKDPQMRFRRGVALSMLDRKNEALAVFQKLVED,-0.0849
18,HMVEVPNVIGMTKPELTQQFVNLKLDGSGEGDVVVQQSPSEGSKVKEGSTVRVYFG,0.137
19,HMKKRDAEIMLQREFKLTEAIAMVRDRDIQELLPIALYFKVNINQPTAEIRYNLLNIAKSKTQEFIEAFD,-1.03

row,Sequence,soluble fraction (log2)
1,HMSKPIYSELLREIRSGDVKELTLIPQRREVLVEYSDGRKATVSILANDQQVLRTAESAGVPLTVK,0.116
2,HMELNELTSRELMVAEQVARGASNREISEALSISERTVKAHLSAAFEKLGVRDRVQLALAMNNIPT,-0.886
3,HMTKDEIIIQSIIDAAKKLMQQYGLNKTTMEDIAKEAGKGKSTLYHYFKSKEEIFDQVINQEID,-1.06
4,HMEPVFSDPARQTLYQEVMELPAKYRVPLYLYYYEGYKVDEVGELLGLNASTVQTRLARARAKLKIQL,-0.17
5,HMSESAGKAFDLLFYLAKAGETVSLARLSRETGMNKATALRYLNVLESKGVVERSKLGWTLGLSLFELGSK,-0.508
6,HMVQIVINKEVQTTSQTILRENAGTSSRNIGYVDPNVKLRATLDRNSFYFIPEKKGWIMKSRVKLIEDLS,0.0552
7,HMTNQEFNEVFKLLLAAYPNTKDKESVATIYFLTIANELTKKEFAEAVVKILKTRKSGFIPQPAEILEVAK,-0.208
8,HMQDGTILPGQKTAIRSLATSGGYDSQDLDTYLATTYGKSIDGLTRTEGADVIKAFQAGTVAK,0.165
9,HMLVGRDPQALILGSMPSEKSLEEDEYYAHPRNRFWSLMNWLLAGNKTRPAYKTGIEILSSHGIALWV,-0.578
10,HMDGTAKVAHMLVNELETFNRLKKHEIAYMLHIQPETLSRILNKLTRNGTIEIEKNSVVILNIQELKEIY,-0.271
11,HMPSLGADIRALRKSRKMTLVALADALGRSVGWLSQVERDKSHATIADLGRMAEVLDVSISSFL,-0.209
12,HMSDESALLELVKQIIADNPKAVEEIRAGKEKAMGFLIGQAMKASRGSANPQIISRLVREQLG,0.0495
13,HMGDLKSLIQATMDDAGISIKPDAMDYLISHLGSDRLTTRAELDKLILYAGADDKLDLDSVVELVG,-0.794
14,HMRPQIAIDAIQALSLIMRTENKEDPTYLESRRVVSDAVAKRLSLNPTDLNRAWSRAPRDHQIAVLSALTQ,-0.184
15,HMPIDQAKRKKEIIQNFGIRKIYKFSEIFDLKFGRDNIIVTFLIILDMIKEGVVEINENKEEIEFEYK,-0.04
16,HMGDEPGAGYKWREDVLLRVMSEHGIDESARDDFVRHAVKFDDDDNLYLKKAEIIAAAEAWESSS,-2.05
17,HMAVQAESDIIKRAALLRNLGNTSMQLKNIDQAIDFYKQGIKLHPEDAELKYNLSQALRQKSQSNN,0.186
18,HMDSNPLSEREQEVLQLVAKGASNQTIAEQLFLSNGTIRNYMTAIFNKLNANNRTDAVRIARENGW,-0.24
19,HMQNVFARKNLTSVSVDKLGEEEILLFKQSFESKNLTSSEALRDLSKKGMSEAELRKLKVRLTQL,-0.177
